# Laboratory results taken from publication PMC9016894, “MdMYB10 affects nitrogen uptake and reallocation by regulating the nitrate transporter MdNRT2.4-1 in red-fleshed apple”.
# Residue numbers refer to the chain shown, from its start.
# T1: MdMYB10-HIS (also printed MdMYB1-HIS) (Malus domestica? (apple), UniProt E2RZU2 1-243)
# T1 sequence: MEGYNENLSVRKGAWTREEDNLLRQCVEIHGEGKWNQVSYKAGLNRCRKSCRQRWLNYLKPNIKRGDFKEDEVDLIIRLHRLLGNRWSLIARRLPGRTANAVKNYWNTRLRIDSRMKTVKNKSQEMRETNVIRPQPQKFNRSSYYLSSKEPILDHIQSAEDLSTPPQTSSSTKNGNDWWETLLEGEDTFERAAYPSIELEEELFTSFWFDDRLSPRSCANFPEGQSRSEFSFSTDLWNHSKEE
# B1: MdNIA2-1(MRE) (dsDNA)
# DNA 1: AAGATTTCAGTTTAACAATTAGGTTGATTAGGAACCGGAACCAAA
# DNA 2: TTTGGTTCCGGTTCCTAATCAACCTAATTGTTAAACTGAAATCTT
# B2: MdNRT2.4-1(MBS-1) (dsDNA)
# DNA 1: TTATAGAGGGTTTTGAGTTGACCGTGTGAAGGGTTGTGAAGAGGC
# DNA 2: GCCTCTTCACAACCCTTCACACGGTCAACTCAAAACCCTCTATAA
# B3: MdNRT2.4-1(MBS-1m) (dsDNA)
# DNA 1: B2 DNA 1 with C22T, C23T
# DNA 2: B2 DNA 2 with G23A, G24A
# What was measured:
# Conditions in all cases: protein: recombinant; tags: His (pET32a); blunt
# [1] = target: T1, MdMYB10-HIS (also printed MdMYB1-HIS); assay: EMSA; shift seen; authors judge it non-specific; not stated (EMSA as described by Xie et al. [40])
# [2] = target: T1, MdMYB10-HIS (also printed MdMYB1-HIS); assay: EMSA; not stated (EMSA as described by Xie et al. [40])
# [3] = target: T1, MdMYB10-HIS (also printed MdMYB1-HIS); assay: competition; unlabeled MBS-1m against labeled MBS-1; no competition; not stated (EMSA as described by Xie et al. [40])
binder,measurement,setting,value
B1,binding result,[1],binds
B2,binding result,[2],binds
B3,binding result,[3],no binding
